From US20210163536A1 (IPSEN PHARMA S A S, published 2021) come the findings set out here.

By Ki is commonly meant a measure of affinity in units of concentration, obtained from inhibition or displacement.

B1: Hydantoin(C(O)-(Gly-Arg))-cyclo(Cys-Glu-His-D-Phe-Arg-Trp-Cys)-NH2 (peptide)
peptide: CEHXRWC
modifications: hydantoin ring from Gly 1, C(O) and the amino group of Arg 2; D-Phe 6; disulfide Cys 3-Cys 9 (cyclo); C-terminal amide
notes: residue 6 here is D-Phe; also called Compound E
B2: Hydantoin(C(O)-(Nle-Gly))-cyclo(Cys-Glu-His-D-Phe-Arg-Trp-Cys)-NH2 (peptide)
peptide: CEHXRWC
modifications: not fully specified; hydantoin ring from Nle 1, C(O) and the amino group of Gly 2; Nle 1; D-Phe 6; disulfide Cys 3-Cys 9 (cyclo); C-terminal amide
notes: residue 6 here is D-Phe; also called Compound F
B3: Hydantoin(C(O)-(Gly-Gly))-cyclo(Cys-Glu-His-D-Phe-Arg-Trp-Cys)-NH2 (peptide)
peptide: CEHXRWC
modifications: not fully specified; hydantoin ring from Gly 1, C(O) and the amino group of Gly 2; D-Phe 6; disulfide Cys 3-Cys 9 (cyclo); C-terminal amide
notes: residue 6 here is D-Phe
B4: cyclo[Hydantoin(C(O)-(Gly-Cys))-Glu-His-D-Phe-Arg-Trp-Cys]-NH2 (peptide)
peptide: EHXRWC
modifications: not fully specified; hydantoin ring from Gly 1, C(O) and the amino group of Cys 2; D-Phe 5; disulfide Cys 2-Cys 8 (cyclo); C-terminal amide
B5: cyclo[Hydantoin(C(O)-(Ile-Cys))-D-Ala-His-D-Phe-Arg-Trp-Cys]-NH2 (peptide)
peptide: XHXRWC
modifications: hydantoin ring from Ile 1, C(O) and the amino group of Cys 2; D-Ala 3; D-Phe 5; disulfide Cys 2-Cys 8 (cyclo); C-terminal amide
B6: Hydantoin(C(O)-(Arg-Gly))-cyclo(Cys-Glu-His-D-Phe-Arg-Trp-Cys)-NH2 (peptide)
peptide: CEHXRWC
modifications: not fully specified; hydantoin ring from Arg 1, C(O) and the amino group of Gly 2; D-Phe 6; disulfide Cys 3-Cys 9 (cyclo); C-terminal amide
notes: also called Compound C

The target of one experiment is T1, human melanocortin-1 receptor (human, UniProt Q01726 1-317).
T1 construct: whole, on cells; Ki assays used cellular membranes of the CHO-K1 cells; cAMP assays used the whole cells; also called hMC1; hMC-R receptor subtype 1
T1 sequence (Q01726 whole entry): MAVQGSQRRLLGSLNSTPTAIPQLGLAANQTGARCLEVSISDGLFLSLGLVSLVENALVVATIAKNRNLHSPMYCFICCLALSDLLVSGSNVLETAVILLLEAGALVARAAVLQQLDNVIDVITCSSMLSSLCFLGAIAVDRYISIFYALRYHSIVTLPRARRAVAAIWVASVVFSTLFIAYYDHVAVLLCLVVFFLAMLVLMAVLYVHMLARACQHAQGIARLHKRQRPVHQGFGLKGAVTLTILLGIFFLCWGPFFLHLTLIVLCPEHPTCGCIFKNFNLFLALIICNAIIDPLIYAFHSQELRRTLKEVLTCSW
In words: competition with [125I]-NDP-alpha-MSH, CHO-K1 cell membranes. As for the experimental part: (§1) Competitive inhibition of [¹²⁵I](Tyr²)-(Nle⁴-D-Phe⁷)α-MSH ([¹²⁵I]-NDP-α-MSH, Amersham Biosciences®) binding was carried out in polypropylene 96 well plates. […] Bound [¹²⁵I]-NDP-α-MSH ligand was separated from free [¹²⁵I]-NDP-α-MSH by filtration through GF/C glass fiber filter plates (Unifilter®; Packard) presoaked with 0.1% (w/v) polyethylenimine (PEI), using a Packard Filtermate® harvester. Filters were washed three times with 50 mM Tris-HCl at pH 7.4 at a temperature of approximately 0-4° C. and then assayed for radioactivity using a Packard Topcount® scintillation counter. Binding data were analyzed by computer-assisted non-linear regression analysis (XL fit; IDBS).
B1: the Ki turned out to be 5.68 nM. That is a single-digit nanomolar value.

The molecule B2 returned a Ki of 14.3 nM.

In the case of B3, affinity was put at a Ki of 11.9 nM. The Ki values of the last two molecules are within 1.5-fold of each other.

B4 had a Ki of 15.6 nM. This Ki and that of the molecule before are within 1.5-fold of each other.

In turn, B5 had a Ki of 53.4 nM.

The molecule B6 displayed a Ki of 8.59 nM.

The target of another experiment is T2, human melanocortin-3 receptor (human, UniProt P41968 1-323).
T2 construct: whole, on cells; Ki assays used cellular membranes of the CHO-K1 cells; cAMP assays used the whole cells; also called hMC3; hMC-R receptor subtype 3
T2 sequence (P41968 whole entry): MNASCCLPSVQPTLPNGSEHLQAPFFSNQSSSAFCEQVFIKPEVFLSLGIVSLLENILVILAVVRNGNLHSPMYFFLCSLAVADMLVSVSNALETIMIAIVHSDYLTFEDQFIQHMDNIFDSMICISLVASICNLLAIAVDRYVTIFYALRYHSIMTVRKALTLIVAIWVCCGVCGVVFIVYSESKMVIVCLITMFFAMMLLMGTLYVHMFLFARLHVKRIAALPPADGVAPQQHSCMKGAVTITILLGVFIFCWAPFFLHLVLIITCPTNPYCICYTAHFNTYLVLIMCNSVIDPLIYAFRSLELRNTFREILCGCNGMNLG
The description is as above. As for the experimental part: as §1
Take B4: the Ki was found to be 305 nM.

In a further experiment the target is T3, human melanocortin-4 receptor (human, UniProt P32245 1-332).
T3 construct: whole, on cells; Ki assays used cellular membranes of the CHO-K1 cells; cAMP assays used the whole cells; also called hMC4; hMC-R receptor subtype 4
T3 sequence (P32245 whole entry): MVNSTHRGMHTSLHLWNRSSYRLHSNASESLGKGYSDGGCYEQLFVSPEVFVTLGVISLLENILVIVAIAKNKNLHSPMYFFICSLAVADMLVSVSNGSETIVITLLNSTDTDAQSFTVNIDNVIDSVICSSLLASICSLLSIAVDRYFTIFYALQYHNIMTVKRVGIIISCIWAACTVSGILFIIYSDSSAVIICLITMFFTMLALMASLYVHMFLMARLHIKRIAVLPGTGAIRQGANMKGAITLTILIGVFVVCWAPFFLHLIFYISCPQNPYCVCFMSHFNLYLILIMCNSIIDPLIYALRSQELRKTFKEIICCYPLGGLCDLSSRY
The experiment is described as above. As for the experimental part: as §1
B4 displayed a Ki of 8.92 nM.

The molecule B5 displayed a Ki of 41.6 nM.

The target of the next experiment is T4, human melanocortin-5 receptor (human, UniProt P33032 1-325).
T4 construct: whole, on cells; Ki assays used cellular membranes of the CHO-K1 cells; cAMP assays used the whole cells; also called hMC5; hMC-R receptor subtype 5
T4 sequence (P33032 whole entry): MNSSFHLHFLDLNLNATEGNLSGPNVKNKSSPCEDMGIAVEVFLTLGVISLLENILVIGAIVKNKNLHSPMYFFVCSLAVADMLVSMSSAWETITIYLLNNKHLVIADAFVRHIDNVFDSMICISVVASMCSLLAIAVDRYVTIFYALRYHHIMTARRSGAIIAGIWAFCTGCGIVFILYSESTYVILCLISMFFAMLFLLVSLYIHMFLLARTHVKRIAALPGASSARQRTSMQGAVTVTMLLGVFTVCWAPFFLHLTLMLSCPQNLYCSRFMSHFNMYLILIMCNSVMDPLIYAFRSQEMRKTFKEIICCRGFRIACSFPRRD
The description is as above. As for the experimental part: as §1
In turn, B1 came in with a Ki of 4220 nM. That is a single-digit micromolar value.

The molecule B2 returned a Ki of 67.8 nM. Compared with the last molecule, the Ki is about 62-fold lower.

Regarding B3, the Ki turned out to be 73.9 nM.

On to B4, for which the inhibitory constant (Ki) was 3070 nM.

Turning to B6, the Ki is 7760 nM.
